Source: patent US20170101472A1 (Regeneron, published 2017)
Numbering of substitutions follows the chain as printed. In names and notes the source's numbering stands. Values belong to the binder of their own block, whether it stands above or below them.

Columns and labels:
[1] = target: T1, recombinant human LAG3 expressed with a C-terminal myc-myc-hexahistidine tag (human, UniProt P18627 29-450); experiment: SPR, mAb captured, 25 C
T1 construct: also called hLAG3-mmh; hLAG3.mmh
Procedure: (§1) The BiaCore sensor surface was derivatized with either a polyclonal rabbit anti-mouse antibody (GE, # BR-1008-38) or with a monoclonal mouse anti-human Fc antibody (GE, # BR-1008-39) to capture approximately 50-85 RUs of anti-LAG3 monoclonal antibodies, expressed with either a mouse Fc or a human Fc, respectively. […] The binding of the LAG3 reagents to captured monoclonal antibodies was monitored for 4 minutes while their dissociation from the antibodies was monitored for 8 minutes in HBST running buffer (0.01 M HEPES pH 7.4, 0.15 M NaCl, 3 mM EDTA, 0.05% v/v Surfactant P20). Experiments were performed at 25° C. and 37° C. Kinetic association (kₐ) and dissociation (kd) rate constants were determined by processing and fitting the data to a 1:1 binding model using Scrubber 2.0c curve fitting software. Binding dissociation equilibrium constants (KD) and dissociative half-lives (t_{1/2}) were then calculated from the kinetic rate constants as: KD (M)=kd/kₐ and t_{1/2} (min)=[ln2/(60*kd)].

[2] = target: T2, recombinant human LAG3 expressed with a C-terminal mouse IgG2a mFc tag (human); experiment: SPR, mAb captured, 25 C
T2 construct: Called dimeric; also called hLAG3-mFc; hLAG3 dimer
T2 chain: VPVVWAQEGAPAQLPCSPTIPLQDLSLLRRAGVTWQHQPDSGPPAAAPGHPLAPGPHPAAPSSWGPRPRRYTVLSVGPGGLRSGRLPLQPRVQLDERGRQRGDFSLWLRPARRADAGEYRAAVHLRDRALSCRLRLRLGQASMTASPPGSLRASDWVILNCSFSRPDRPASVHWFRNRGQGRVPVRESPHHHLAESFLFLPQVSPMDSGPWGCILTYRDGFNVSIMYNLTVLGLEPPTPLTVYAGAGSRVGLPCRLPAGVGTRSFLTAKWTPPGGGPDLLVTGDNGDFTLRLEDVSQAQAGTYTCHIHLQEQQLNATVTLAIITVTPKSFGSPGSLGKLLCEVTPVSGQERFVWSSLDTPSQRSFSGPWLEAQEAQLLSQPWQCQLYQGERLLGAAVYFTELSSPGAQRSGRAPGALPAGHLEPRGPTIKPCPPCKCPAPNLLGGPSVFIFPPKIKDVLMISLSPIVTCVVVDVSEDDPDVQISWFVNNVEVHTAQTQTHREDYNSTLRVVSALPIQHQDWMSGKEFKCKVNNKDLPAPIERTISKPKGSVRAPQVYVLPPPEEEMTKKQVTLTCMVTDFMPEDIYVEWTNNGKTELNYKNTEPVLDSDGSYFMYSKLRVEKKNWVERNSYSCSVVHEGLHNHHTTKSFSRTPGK
Procedure: as §1

[3] = target: T1, recombinant human LAG3 expressed with a …; experiment: SPR, mAb captured, 37 C
Procedure: as §1

[4] = target: T2, recombinant human LAG3 expressed with a …; experiment: SPR, mAb captured, 37 C
Procedure: as §1

[5] = target: T3, human LAG3 expressed on HEK293 cells (human, UniProt P18627 23-525); experiment: flow cytometry, HEK293/hLAG3 cells
T3 construct: also called hLAG3; HEK293/hLAG3
T3 sequence: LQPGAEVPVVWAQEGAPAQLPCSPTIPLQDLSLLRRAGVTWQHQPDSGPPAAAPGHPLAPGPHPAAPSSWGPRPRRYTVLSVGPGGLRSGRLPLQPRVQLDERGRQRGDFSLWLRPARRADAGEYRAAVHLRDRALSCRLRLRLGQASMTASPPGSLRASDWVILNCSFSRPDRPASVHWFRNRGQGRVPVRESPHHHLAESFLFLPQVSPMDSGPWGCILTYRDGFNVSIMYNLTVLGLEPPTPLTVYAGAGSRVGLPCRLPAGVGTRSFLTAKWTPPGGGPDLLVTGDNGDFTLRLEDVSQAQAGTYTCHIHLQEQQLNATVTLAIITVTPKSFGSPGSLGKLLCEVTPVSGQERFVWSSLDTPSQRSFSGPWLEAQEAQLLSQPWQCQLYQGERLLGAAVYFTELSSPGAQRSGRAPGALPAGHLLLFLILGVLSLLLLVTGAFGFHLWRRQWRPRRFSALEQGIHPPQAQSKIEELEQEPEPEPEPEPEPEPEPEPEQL
Procedure: The serially diluted antibodies were added to the cell suspension and incubated for 15-30 minutes on ice. The cells were centrifuged and pellets were washed with staining buffer to remove unbound antibodies. […] The cells were centrifuged and pellets were washed with staining buffer to remove unbound secondary F(ab′)2 and fixed overnight with a 1:1 dilution of Cytofix (BD Biosciences, #554655) and staining buffer. Following day, fixed cells were centrifuged and pellets were washed with staining buffer, resuspended and filtered. Fluorescence measurements were acquired on HyperCyt® cytometer and analyzed in ForeCyt™ (IntelliCyt; Albuquerque, N. Mex.) to determine the mean fluorescence intensities (MFI). The EC₅₀ values were calculated from a four-parameter logistic equation over an 11-point response curve using GraphPad Prism. EC₅₀ was defined as the concentration of antibody at which 50% of maximal binding signal is detected. The MFI ratio for each antibody was calculated by dividing the MFI at 100 nM by MFI at 0 nM of antibody concentration.

Kd [1]: 2.31 nM
koff [1]: 0.00141 s⁻¹
kon [1]: 612000 M⁻¹ s⁻¹
t1/2 [1]: 8.2 min
Kd [2]: 0.245 nM
koff [2]: 0.00046 s⁻¹
kon [2]: 1.88e+06 M⁻¹ s⁻¹
t1/2 [2]: 25.1 min
Kd [3]: 1.89 nM
koff [3]: 0.00207 s⁻¹
kon [3]: 1.1e+06 M⁻¹ s⁻¹
t1/2 [3]: 5.6 min
Kd [4]: 0.415 nM
koff [4]: 0.000718 s⁻¹
kon [4]: 1.73e+06 M⁻¹ s⁻¹
t1/2 [4]: 16.1 min
EC50 [5]: 2.65 nM
Ratio of MFI (100 nM/0 nM) [5]: 355
B1: H4H17828P2 (antibody, human IgG4, V domains shown)
VH: EVQLVESGGGLVQPGGSLRLSCAASGFTFKTYAMSWVRQAPGRGLEWVSGISGSGSTSYYADSVKGRFTISRDNYKKTLSLQMNSLRAEDTAVYYCALDIMATVGGLFNNWGQGTLVTVSS
VL: not shown
notes: H4H = human IgG4 Fc with S108P hinge mutation

Kd [1]: 0.0487 nM
koff [1]: 5.98e-05 s⁻¹
kon [1]: 1.23e+06 M⁻¹ s⁻¹
t1/2 [1]: 193 min
Kd [2]: ≤ 0.00328 nM
koff [2]: ≤ 1e-05 s⁻¹
kon [2]: 3.05e+06 M⁻¹ s⁻¹
t1/2 [2]: ≥ 1160 min
Kd [3]: 0.0341 nM
koff [3]: 4.24e-05 s⁻¹
kon [3]: 1.24e+06 M⁻¹ s⁻¹
t1/2 [3]: 272 min
Kd [4]: 0.00342 nM
koff [4]: 1e-05 s⁻¹
kon [4]: 2.92e+06 M⁻¹ s⁻¹
t1/2 [4]: ≥ 1160 min
EC50 [5]: 0.903 nM
Ratio of MFI (100 nM/0 nM) [5]: 199
B2: H4sH15479P (antibody, V domains shown)
VH: QVQLQQWGAGLLNPSETLSLTCAVYGGAFSDYYWNWIRQPPGKGLEWIGEINHRGSTNYNPSLKSRVTISVDTSKNQFSLRMSSVTAADAAVYYCARGEDYDIWNGYYQEKWGQGTLVTVSS
VL: EIVLTQSPATLSLSPGERATLSCRASQSISTYLAWYQQKPGQAPRLLIYDASKRATGIPARFSGSGSGTDFTLTISSLEPEDFVVYYCHQRSNWPLTFGGGTKVEIK

Kd [1]: 6.51 nM
koff [1]: 0.00697 s⁻¹
kon [1]: 1.07e+06 M⁻¹ s⁻¹
t1/2 [1]: 1.7 min
Kd [2]: 0.814 nM
koff [2]: 0.0019 s⁻¹
kon [2]: 2.34e+06 M⁻¹ s⁻¹
t1/2 [2]: 6.1 min
Kd [3]: 7.66 nM
koff [3]: 0.00772 s⁻¹
kon [3]: 1.01e+06 M⁻¹ s⁻¹
t1/2 [3]: 1.5 min
Kd [4]: 0.876 nM
koff [4]: 0.00157 s⁻¹
kon [4]: 1.8e+06 M⁻¹ s⁻¹
t1/2 [4]: 7.3 min
EC50 [5]: 0.665 nM
Ratio of MFI (100 nM/0 nM) [5]: 182
B3: H4sH15462P (antibody, V domains shown)
VH: QVQLVQSGAEVKKPGASVKVSCKASGYTFTNYYIHWVRQAPGQGLDWMGIINPGGGNTNYAQKFLGRVTMTRDTSTTTVYMELSSLRSEDTAIYYCARENWNSYFDNWGQGTLVTVSS
VL: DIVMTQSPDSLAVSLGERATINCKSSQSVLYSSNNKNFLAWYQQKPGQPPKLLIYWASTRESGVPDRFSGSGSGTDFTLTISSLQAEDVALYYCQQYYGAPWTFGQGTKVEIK
notes: H4sH = human IgG4 Fc with 2 or more amino acid changes as disclosed in US20140243504

Kd [1]: 5.75 nM
koff [1]: 0.0054 s⁻¹
kon [1]: 939000 M⁻¹ s⁻¹
t1/2 [1]: 2.1 min
Kd [2]: 1.01 nM
koff [2]: 0.00203 s⁻¹
kon [2]: 2.02e+06 M⁻¹ s⁻¹
t1/2 [2]: 5.7 min
Kd [3]: 5.8 nM
koff [3]: 0.00626 s⁻¹
kon [3]: 1.08e+06 M⁻¹ s⁻¹
t1/2 [3]: 1.8 min
Kd [4]: 0.415 nM
koff [4]: 0.000895 s⁻¹
kon [4]: 2.16e+06 M⁻¹ s⁻¹
t1/2 [4]: 12.9 min
EC50 [5]: 0.3 nM
Ratio of MFI (100 nM/0 nM) [5]: 62.6
B4: H4H15462P (antibody, human IgG4, V domains shown)
VH: B3 VH
VL: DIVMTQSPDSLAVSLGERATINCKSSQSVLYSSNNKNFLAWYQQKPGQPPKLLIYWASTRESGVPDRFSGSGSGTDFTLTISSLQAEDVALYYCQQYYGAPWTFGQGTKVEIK
notes: as for B1

Kd [1]: 0.391 nM
koff [1]: 0.000443 s⁻¹
kon [1]: 1.13e+06 M⁻¹ s⁻¹
t1/2 [1]: 26 min
Kd [2]: 0.124 nM
koff [2]: 0.00018 s⁻¹
kon [2]: 1.45e+06 M⁻¹ s⁻¹
t1/2 [2]: 64.2 min
Kd [3]: 0.552 nM
koff [3]: 0.000876 s⁻¹
kon [3]: 1.59e+06 M⁻¹ s⁻¹
t1/2 [3]: 13.2 min
Kd [4]: 0.317 nM
koff [4]: 0.000527 s⁻¹
kon [4]: 1.66e+06 M⁻¹ s⁻¹
t1/2 [4]: 21.9 min
EC50 [5]: 2.79 nM
Ratio of MFI (100 nM/0 nM) [5]: 436
B5: H4H17819P (antibody, human IgG4, V domains shown)
VH: EVQLVESGGGLVQPGGSLRLSCVASGFTFSLYAMTWVRQVPGKGLEWVSTISGSGGGTYYTDSVKGRFTISRDNSKNTLYLQMNSLRADDTAVFYCTKESTTGTYSYFYGMDVWGQGTTVTVSS
VL: DIQMTQSPSSLSASVGDRVTITCRASQTISSYLNWYQQKPGKAPKLLIYAASSLQSGVPSRFSGSGSGTDFTLTLSGLQPEDFATYYCQQSYSTPLTFGGGTKVEIK
notes: as for B1

Kd [1]: 0.429 nM
koff [1]: 0.000447 s⁻¹
kon [1]: 1.04e+06 M⁻¹ s⁻¹
t1/2 [1]: 25.8 min
Kd [2]: 0.174 nM
koff [2]: 0.000218 s⁻¹
kon [2]: 1.26e+06 M⁻¹ s⁻¹
t1/2 [2]: 52.9 min
Kd [3]: 0.524 nM
koff [3]: 0.000924 s⁻¹
kon [3]: 1.76e+06 M⁻¹ s⁻¹
t1/2 [3]: 12.5 min
Kd [4]: 0.437 nM
koff [4]: 0.000585 s⁻¹
kon [4]: 1.34e+06 M⁻¹ s⁻¹
t1/2 [4]: 19.7 min
EC50 [5]: 1.25 nM
Ratio of MFI (100 nM/0 nM) [5]: 305
B6: H4H17823P (antibody, human IgG4, V domains shown)
VH: EVQLLESGGGLVQPGGSLRLSCAASGFTFRSYAMSWVRQAPGKGLEWVSVISGGGGRTYYTDSVKGRFTISRDNSKSMLYLQMNSLRAEDTAIYYCAKERVTGIDHYYYGVDVWGQGTTVTVSS
VL: B5 VL with T28S, A51T, G66A, T74A, L75I, G77S, S93T
notes: as for B1

Kd [1]: 10.2 nM
koff [1]: 0.00457 s⁻¹
kon [1]: 450000 M⁻¹ s⁻¹
t1/2 [1]: 2.5 min
Kd [2]: 0.817 nM
koff [2]: 0.000564 s⁻¹
kon [2]: 691000 M⁻¹ s⁻¹
t1/2 [2]: 20.5 min
Kd [3]: 1.99 nM
koff [3]: 0.00214 s⁻¹
kon [3]: 1.07e+06 M⁻¹ s⁻¹
t1/2 [3]: 5.4 min
Kd [4]: 0.277 nM
koff [4]: 0.000547 s⁻¹
kon [4]: 1.98e+06 M⁻¹ s⁻¹
t1/2 [4]: 21.1 min
EC50 [5]: 3.86 nM
Ratio of MFI (100 nM/0 nM) [5]: 414
B7: H4H17826P2 (antibody, human IgG4, V domains shown)
VH: EVQLVESGGGLVQPGGSLRLSCAASGFTFSSYEMNWVRQAPGKGLEWVSYISSSGNTKDYAGSVKGRVTISRDNAKNLLYLQMNSLRAEDTAVYHCARDGGHYDILTGSMSYYYYALDVWGQGTTVTVSS
VL: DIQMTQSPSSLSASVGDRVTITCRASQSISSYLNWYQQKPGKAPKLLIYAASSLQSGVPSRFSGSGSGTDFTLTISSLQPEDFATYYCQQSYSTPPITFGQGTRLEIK
notes: as for B1
